We go through 1 substance from patent US20060134087A1, “ITI-D1 Kunitz domain mutants as hNE inhibitors” (Dyax Corp., priority 1988, published 2006).

Where two headings read alike, the source gives them in different places. Ends that are not written are not given here. Bounds are passed on as bounds.

One test concerns chymotrypsin. The following applies: literature; cited from earlier work.
The test system of a further test is trypsin. The following applies: literature; cited from earlier work.
The target in test [1] is T1, agarose-immobilized hNE beads (Homo sapiens, UniProt P08246).
T1 sequence (P08246 30-267): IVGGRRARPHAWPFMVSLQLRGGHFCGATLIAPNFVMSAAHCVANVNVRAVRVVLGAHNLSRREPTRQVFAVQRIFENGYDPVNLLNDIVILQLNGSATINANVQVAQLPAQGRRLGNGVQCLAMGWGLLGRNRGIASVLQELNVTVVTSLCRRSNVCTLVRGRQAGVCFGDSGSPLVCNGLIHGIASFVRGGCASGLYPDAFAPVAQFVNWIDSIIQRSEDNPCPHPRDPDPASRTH
The experiment in a line: pH fractionation of display phage on agarose-immobilized hNE beads. Format: binding. The following applies: range of the affinity class. From the text: For the purpose of simultaneously assessing the affinity of a large number of different BPTI and ITI-D1 muteins, DNA sequences encoding the BPTI or ITI-D1 was incorporated into the genome of the bacteriophage M13. […] Alterations in the KuDom amino acid sequence were introduced. Each pure population of phage displaying a particular KuDom was characterized with regard to its interactions with immobilized hNE or hCG. Based on comparison to the pH elution profiles of phage displaying other KuDoms of known affinities for the particular protease, mutant KuDoms having high affinity for the target proteases were identified. Subsequently, the sequences of these mutant KuDoms were determined (typically by sequencing the corresponding DNA sequence).
To test if phage displaying the ITI-D1::III fusion protein interact strongly with the proteases human neutrophil elastase (hNE), aliquots of display phage were incubated with agarose-immobilized hNE beads (“hNE beads”). The beads were washed and bound phage eluted by pH fractionation as described in U.S. Pat. No. 5,223,409. The pHs used in the step gradient were 7.0, 6.0, 5.5, 5.0, 4.5, 4.0, 3.5, 3.0, 2.5, and 2.0. Following elution and neutralization, the various input, wash, and pH elution fractions were titered. Phage displaying ITI-D1 were compared to phage that display EpiNE-7.
To test if ITI-D1E7-display phage bind hNE beads, pH elution profiles were measured. Aliquots of EpiNE-7, MA-ITI-D1, and MA-ITI-D1E7 display phage were incubated with hNE beads for three hours at room temperature (RT). The beads were washed and phage were eluted as described in U.S. Pat. No. 5,223,409, except that only three pH elutions were performed. […] The pH elution profile of EpiNE-7 display phage is as described. MA-ITI-D1E7 phage show a broad elution maximum around pH 5. The total fraction of MA-ITI-D1E7 phage obtained on pH elution from hNE beads was about 40-fold less than that obtained using EpiNE-7 display phage.
We characterized the binding properties to hNE-beads of MA-BITI and MA-BITI-E7 display phage using the extended pH fractionation procedure described in U.S. Pat. No. 5,223,409.
The binding capacity of hNE-beads for display phage varies among preparations of beads and with age for each individual preparation of beads. Thus, it is difficult to directly compare absolute yields of phage from elutions performed at different times. For example, the fraction of MA-EpiNE7 display phage recovered from hNE-beads varies two-fold among the experiments shown in Tables 14, 16, and 17. However, the shapes of the pH elution profiles are similar. It is possible to correct somewhat for variations in binding capacity of hNE-beads by normalizing display phage yields to the total yield of MA-EpiNE7 phage recovered from the beads in a concurrent elution. When the data shown in Tables 14, 16, and 17 are so normalized, the recoveries of display phage, relative to recovered MA-EpiNE7, are shown in Table 3.
ITI-D1 derivative BITI-E7-1222 is BITI-E7 with the alteration A11T. ITI-D1 derivative BITI-E7-141 is BITI-E7 with the alterations E31Q and Q34V; phage that display the presence of these proteins are MA-BITI-E7-1222 and MA-BITI-E7-141. We determined the binding properties to hNE-beads of MA-BITI-E7-1222 and MA-BITI-E7-141 display phage using the extended pH fractionation protocol described previously. The results are in Tables 18 (for MA-BITI-E7 and MA-BITI-E7-1222) and 19 (for MA-EpiNE7 and MA-BITI-E7-141). The pH elution profiles for the MA-BITI-E7 and MA-BITI-E7-1222 phage are almost identical.
Total pfu applied to the beads are in column two. The fractions of this input pfu recovered in each pH fraction of the abbreviated pH elution protocol (pH 7.0, pH 3.5, and pH 2.0) are in the next three columns. […]

For test [2], the target named is T2, human neutrophil elastase (hNE) (Homo sapiens, UniProt P08246).
T2 sequence (P08246 30-267): T1 sequence (P08246 30-267)
The following applies: ALBR83a,b, ODOM90, cited from earlier work.

For another test, the target named is plasmin (Homo sapiens, UniProt P00747). The following applies: literature; cited from earlier work.
Chain of plasmin (P00747 581-810 limits assumed, species assumed): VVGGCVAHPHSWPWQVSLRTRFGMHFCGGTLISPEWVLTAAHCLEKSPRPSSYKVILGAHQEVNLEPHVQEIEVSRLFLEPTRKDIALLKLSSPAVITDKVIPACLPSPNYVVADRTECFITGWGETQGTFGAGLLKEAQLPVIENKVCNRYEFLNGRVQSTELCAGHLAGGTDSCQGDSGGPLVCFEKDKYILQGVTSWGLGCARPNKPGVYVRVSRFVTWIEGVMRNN
Chain of plasmin (P00747 97-580 partner limits assumed, species assumed): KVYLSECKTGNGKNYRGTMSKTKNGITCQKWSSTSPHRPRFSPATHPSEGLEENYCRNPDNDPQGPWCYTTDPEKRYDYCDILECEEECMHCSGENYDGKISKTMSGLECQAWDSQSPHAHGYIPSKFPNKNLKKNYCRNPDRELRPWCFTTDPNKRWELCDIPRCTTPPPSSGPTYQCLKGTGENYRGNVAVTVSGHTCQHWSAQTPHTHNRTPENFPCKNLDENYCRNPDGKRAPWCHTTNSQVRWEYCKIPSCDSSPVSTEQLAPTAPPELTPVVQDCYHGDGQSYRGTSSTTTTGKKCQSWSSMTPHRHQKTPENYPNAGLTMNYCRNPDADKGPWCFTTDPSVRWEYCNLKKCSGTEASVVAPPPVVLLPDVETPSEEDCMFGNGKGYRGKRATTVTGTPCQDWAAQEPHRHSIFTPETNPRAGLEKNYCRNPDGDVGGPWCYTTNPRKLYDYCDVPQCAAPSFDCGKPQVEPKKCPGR

By Ki is commonly meant a dissociation constant, usually derived from enzyme kinetics or from competition with a known ligand. For “ITI-D1: first Kunitz domain of human inter-α-trypsin inhibitor light chain, SEQ ID NO 016 (KEDSCQLGYSAGPCMGMTSRYFYNGTSMACETFQYGGCMGNGNNFVTEKDCLQTCRTV; disulfide (positions not given here); also: disulfides drawn as lines in table, pairing not given here)”, the affinity for chymotrypsin result with chymotrypsin is recorded as “lacks affinity”. Also, in the test with trypsin, the “affinity for / inhibition of trypsin” value is reported as “lacks affinity”. Also, in test [1], the “Fraction of Input bound” value is on record as below 0.005% and the “pH Elution Maximum” value is above 6.0 pH. Moreover, the Ki in test [2] (read-out: Ki for leukocyte elastase, lower limit) was above 1 nM. Moreover, the Ki in test [2] (read-out: Ki for leukocyte elastase, upper limit) is below 1000 nM. Also, the affinity for plasmin entry with plasmin is listed as “lacks affinity”.
